Data reported in paper PMC4769319, “Cohesin Releases DNA through Asymmetric ATPase-Driven Ring Opening” (Molecular Cell, 2016).

B1: full-length HIS6-Smc1 (wild-type) (natural protein, S. cerevisiae, UniProt P32908 1-1225, looked up)
chain: MGRLVGLELSNFKSYRGVTKVGFGESNFTSIIGPNGSGKSNMMDAISFVLGVRSNHLRSNILKDLIYRGVLNDENSDDYDNEGAASSNPQSAYVKAFYQKGNKLVELMRIISRNGDTSYKIDGKTVSYKDYSIFLENENILIKAKNFLVFQGDVEQIAAQSPVELSRMFEEVSGSIQYKKEYEELKEKIEKLSKSATESIKNRRRIHGELKTYKEGINKNEEYRKQLDKKNELQKFQALWQLYHLEQQKEELTDKLSALNSEISSLKGKINNEMKSLQRSKSSFVKESAVISKQKSKLDYIFKDKEKLVSDLRLIKVPQQAAGKRISHIEKRIESLQKDLQRQKTYVERFETQLKVVTRSKEAFEEEIKQSARNYDKFKLNENDLKTYNCLHEKYLTEGGSILEEKIAVLNNDKREIQEELERFNKRADISKRRITEELSITGEKLDTQLNDLRVSLNEKNALHTERLHELKKLQSDIESANNQEYDLNFKLRETLVKIDDLSANQRETMKERKLRENIAMLKRFFPGVKGLVHDLCHPKKEKYGLAVSTILGKNFDSVIVENLTVAQECIAFLKKQRAGTASFIPLDTIETELPTLSLPDSQDYILSINAIDYEPEYEKAMQYVCGDSIICNTLNIAKDLKWKKGIRGKLVTIEGALIHKAGLMTGGISGDANNRWDKEEYQSLMSLKDKLLIQIDELSNGQRSNSIRAREVENSVSLLNSDIANLRTQVTQQKRSLDENRLEIKYHNDLIEKEIQPKITELKKKLDDLENTKDNLVKEKEALQNNIFKEFTSKIGFTIKEYENHSGELMRQQSKELQQLQKQILTVENKLQFETDRLSTTQRRYEKAQKDLENAQVEMKSLEEQEYAIEMKIGSIESKLEEHKNHLDELQKKFVTKQSELNSSEDILEDMNSNLQVLKRERDGIKEDIEKFDLERVTALKNCKISNINIPISSETTIDDLPISSTDNEAITISNSIDINYKGLPKKYKENNTDSARKELEQKIHEVEEILNELQPNARALERYDEAEGRFEVINNETEQLKAEEKKILNQFLKIKKKRKELFEKTFDYVSDHLDAIYRELTKNPNSNVELAGGNASLTIEDEDEPFNAGIKYHATPPLKRFKDMEYLSGGEKTVAALALLFAINSYQPSPFFVLDEVDAALDITNVQRIAAYIRRHRNPDLQFIVISLKNTMFEKSDALVGVYRQQQENSSKIITLDLSNYAE
notes: Smc1, S. cerevisiae, full length; Always co-expressed and co-purified with StrepII-Scc1-C; vector pFastBac NKI-LIC; details in Supplemental Experimental Procedures; not shown: His6, N-terminal, kept
B2: full-length HIS6-Smc1 K39I (natural protein, S. cerevisiae, UniProt P32908 1-1225, looked up)
chain: MGRLVGLELSNFKSYRGVTKVGFGESNFTSIIGPNGSGISNMMDAISFVLGVRSNHLRSNILKDLIYRGVLNDENSDDYDNEGAASSNPQSAYVKAFYQKGNKLVELMRIISRNGDTSYKIDGKTVSYKDYSIFLENENILIKAKNFLVFQGDVEQIAAQSPVELSRMFEEVSGSIQYKKEYEELKEKIEKLSKSATESIKNRRRIHGELKTYKEGINKNEEYRKQLDKKNELQKFQALWQLYHLEQQKEELTDKLSALNSEISSLKGKINNEMKSLQRSKSSFVKESAVISKQKSKLDYIFKDKEKLVSDLRLIKVPQQAAGKRISHIEKRIESLQKDLQRQKTYVERFETQLKVVTRSKEAFEEEIKQSARNYDKFKLNENDLKTYNCLHEKYLTEGGSILEEKIAVLNNDKREIQEELERFNKRADISKRRITEELSITGEKLDTQLNDLRVSLNEKNALHTERLHELKKLQSDIESANNQEYDLNFKLRETLVKIDDLSANQRETMKERKLRENIAMLKRFFPGVKGLVHDLCHPKKEKYGLAVSTILGKNFDSVIVENLTVAQECIAFLKKQRAGTASFIPLDTIETELPTLSLPDSQDYILSINAIDYEPEYEKAMQYVCGDSIICNTLNIAKDLKWKKGIRGKLVTIEGALIHKAGLMTGGISGDANNRWDKEEYQSLMSLKDKLLIQIDELSNGQRSNSIRAREVENSVSLLNSDIANLRTQVTQQKRSLDENRLEIKYHNDLIEKEIQPKITELKKKLDDLENTKDNLVKEKEALQNNIFKEFTSKIGFTIKEYENHSGELMRQQSKELQQLQKQILTVENKLQFETDRLSTTQRRYEKAQKDLENAQVEMKSLEEQEYAIEMKIGSIESKLEEHKNHLDELQKKFVTKQSELNSSEDILEDMNSNLQVLKRERDGIKEDIEKFDLERVTALKNCKISNINIPISSETTIDDLPISSTDNEAITISNSIDINYKGLPKKYKENNTDSARKELEQKIHEVEEILNELQPNARALERYDEAEGRFEVINNETEQLKAEEKKILNQFLKIKKKRKELFEKTFDYVSDHLDAIYRELTKNPNSNVELAGGNASLTIEDEDEPFNAGIKYHATPPLKRFKDMEYLSGGEKTVAALALLFAINSYQPSPFFVLDEVDAALDITNVQRIAAYIRRHRNPDLQFIVISLKNTMFEKSDALVGVYRQQQENSSKIITLDLSNYAE
notes: Smc1, S. cerevisiae, full length, Walker A mutant; Co-purified with StrepII-Scc1-C; also called Walker A mutant Smc1 K39I; not shown: His6, N-terminal, kept
B3: full-length HIS6-Smc1 D1164E (natural protein, S. cerevisiae, UniProt P32908 1-1225, looked up)
chain: MGRLVGLELSNFKSYRGVTKVGFGESNFTSIIGPNGSGKSNMMDAISFVLGVRSNHLRSNILKDLIYRGVLNDENSDDYDNEGAASSNPQSAYVKAFYQKGNKLVELMRIISRNGDTSYKIDGKTVSYKDYSIFLENENILIKAKNFLVFQGDVEQIAAQSPVELSRMFEEVSGSIQYKKEYEELKEKIEKLSKSATESIKNRRRIHGELKTYKEGINKNEEYRKQLDKKNELQKFQALWQLYHLEQQKEELTDKLSALNSEISSLKGKINNEMKSLQRSKSSFVKESAVISKQKSKLDYIFKDKEKLVSDLRLIKVPQQAAGKRISHIEKRIESLQKDLQRQKTYVERFETQLKVVTRSKEAFEEEIKQSARNYDKFKLNENDLKTYNCLHEKYLTEGGSILEEKIAVLNNDKREIQEELERFNKRADISKRRITEELSITGEKLDTQLNDLRVSLNEKNALHTERLHELKKLQSDIESANNQEYDLNFKLRETLVKIDDLSANQRETMKERKLRENIAMLKRFFPGVKGLVHDLCHPKKEKYGLAVSTILGKNFDSVIVENLTVAQECIAFLKKQRAGTASFIPLDTIETELPTLSLPDSQDYILSINAIDYEPEYEKAMQYVCGDSIICNTLNIAKDLKWKKGIRGKLVTIEGALIHKAGLMTGGISGDANNRWDKEEYQSLMSLKDKLLIQIDELSNGQRSNSIRAREVENSVSLLNSDIANLRTQVTQQKRSLDENRLEIKYHNDLIEKEIQPKITELKKKLDDLENTKDNLVKEKEALQNNIFKEFTSKIGFTIKEYENHSGELMRQQSKELQQLQKQILTVENKLQFETDRLSTTQRRYEKAQKDLENAQVEMKSLEEQEYAIEMKIGSIESKLEEHKNHLDELQKKFVTKQSELNSSEDILEDMNSNLQVLKRERDGIKEDIEKFDLERVTALKNCKISNINIPISSETTIDDLPISSTDNEAITISNSIDINYKGLPKKYKENNTDSARKELEQKIHEVEEILNELQPNARALERYDEAEGRFEVINNETEQLKAEEKKILNQFLKIKKKRKELFEKTFDYVSDHLDAIYRELTKNPNSNVELAGGNASLTIEDEDEPFNAGIKYHATPPLKRFKDMEYLSGGEKTVAALALLFAINSYQPSPFFVLDEVDAALEITNVQRIAAYIRRHRNPDLQFIVISLKNTMFEKSDALVGVYRQQQENSSKIITLDLSNYAE
notes: Smc1, S. cerevisiae, full length, D-loop mutant; Co-purified with StrepII-Scc1-C; also called D-loop mutant D1164E; not shown: His6, N-terminal, kept
B4: full-length HIS6-Smc1 L1129V (natural protein, S. cerevisiae, UniProt P32908 1-1225, looked up)
chain: MGRLVGLELSNFKSYRGVTKVGFGESNFTSIIGPNGSGKSNMMDAISFVLGVRSNHLRSNILKDLIYRGVLNDENSDDYDNEGAASSNPQSAYVKAFYQKGNKLVELMRIISRNGDTSYKIDGKTVSYKDYSIFLENENILIKAKNFLVFQGDVEQIAAQSPVELSRMFEEVSGSIQYKKEYEELKEKIEKLSKSATESIKNRRRIHGELKTYKEGINKNEEYRKQLDKKNELQKFQALWQLYHLEQQKEELTDKLSALNSEISSLKGKINNEMKSLQRSKSSFVKESAVISKQKSKLDYIFKDKEKLVSDLRLIKVPQQAAGKRISHIEKRIESLQKDLQRQKTYVERFETQLKVVTRSKEAFEEEIKQSARNYDKFKLNENDLKTYNCLHEKYLTEGGSILEEKIAVLNNDKREIQEELERFNKRADISKRRITEELSITGEKLDTQLNDLRVSLNEKNALHTERLHELKKLQSDIESANNQEYDLNFKLRETLVKIDDLSANQRETMKERKLRENIAMLKRFFPGVKGLVHDLCHPKKEKYGLAVSTILGKNFDSVIVENLTVAQECIAFLKKQRAGTASFIPLDTIETELPTLSLPDSQDYILSINAIDYEPEYEKAMQYVCGDSIICNTLNIAKDLKWKKGIRGKLVTIEGALIHKAGLMTGGISGDANNRWDKEEYQSLMSLKDKLLIQIDELSNGQRSNSIRAREVENSVSLLNSDIANLRTQVTQQKRSLDENRLEIKYHNDLIEKEIQPKITELKKKLDDLENTKDNLVKEKEALQNNIFKEFTSKIGFTIKEYENHSGELMRQQSKELQQLQKQILTVENKLQFETDRLSTTQRRYEKAQKDLENAQVEMKSLEEQEYAIEMKIGSIESKLEEHKNHLDELQKKFVTKQSELNSSEDILEDMNSNLQVLKRERDGIKEDIEKFDLERVTALKNCKISNINIPISSETTIDDLPISSTDNEAITISNSIDINYKGLPKKYKENNTDSARKELEQKIHEVEEILNELQPNARALERYDEAEGRFEVINNETEQLKAEEKKILNQFLKIKKKRKELFEKTFDYVSDHLDAIYRELTKNPNSNVELAGGNASLTIEDEDEPFNAGIKYHATPPLKRFKDMEYVSGGEKTVAALALLFAINSYQPSPFFVLDEVDAALDITNVQRIAAYIRRHRNPDLQFIVISLKNTMFEKSDALVGVYRQQQENSSKIITLDLSNYAE
notes: Smc1, S. cerevisiae, full length, Signature motif mutant; Co-purified with StrepII-Scc1-C; also called Signature motif mutant L1129V; not shown: His6, N-terminal, kept

Target: T1, full-length StrepII-Smc3 (wild-type) (S. cerevisiae, UniProt P47037 1-1230)
T1 construct: Smc3, S. cerevisiae, full length; source: Sf9 insect cells, expressed alone, purified (Strep-II tag purification, size-exclusion chromatography)
T1 sequence (looked up): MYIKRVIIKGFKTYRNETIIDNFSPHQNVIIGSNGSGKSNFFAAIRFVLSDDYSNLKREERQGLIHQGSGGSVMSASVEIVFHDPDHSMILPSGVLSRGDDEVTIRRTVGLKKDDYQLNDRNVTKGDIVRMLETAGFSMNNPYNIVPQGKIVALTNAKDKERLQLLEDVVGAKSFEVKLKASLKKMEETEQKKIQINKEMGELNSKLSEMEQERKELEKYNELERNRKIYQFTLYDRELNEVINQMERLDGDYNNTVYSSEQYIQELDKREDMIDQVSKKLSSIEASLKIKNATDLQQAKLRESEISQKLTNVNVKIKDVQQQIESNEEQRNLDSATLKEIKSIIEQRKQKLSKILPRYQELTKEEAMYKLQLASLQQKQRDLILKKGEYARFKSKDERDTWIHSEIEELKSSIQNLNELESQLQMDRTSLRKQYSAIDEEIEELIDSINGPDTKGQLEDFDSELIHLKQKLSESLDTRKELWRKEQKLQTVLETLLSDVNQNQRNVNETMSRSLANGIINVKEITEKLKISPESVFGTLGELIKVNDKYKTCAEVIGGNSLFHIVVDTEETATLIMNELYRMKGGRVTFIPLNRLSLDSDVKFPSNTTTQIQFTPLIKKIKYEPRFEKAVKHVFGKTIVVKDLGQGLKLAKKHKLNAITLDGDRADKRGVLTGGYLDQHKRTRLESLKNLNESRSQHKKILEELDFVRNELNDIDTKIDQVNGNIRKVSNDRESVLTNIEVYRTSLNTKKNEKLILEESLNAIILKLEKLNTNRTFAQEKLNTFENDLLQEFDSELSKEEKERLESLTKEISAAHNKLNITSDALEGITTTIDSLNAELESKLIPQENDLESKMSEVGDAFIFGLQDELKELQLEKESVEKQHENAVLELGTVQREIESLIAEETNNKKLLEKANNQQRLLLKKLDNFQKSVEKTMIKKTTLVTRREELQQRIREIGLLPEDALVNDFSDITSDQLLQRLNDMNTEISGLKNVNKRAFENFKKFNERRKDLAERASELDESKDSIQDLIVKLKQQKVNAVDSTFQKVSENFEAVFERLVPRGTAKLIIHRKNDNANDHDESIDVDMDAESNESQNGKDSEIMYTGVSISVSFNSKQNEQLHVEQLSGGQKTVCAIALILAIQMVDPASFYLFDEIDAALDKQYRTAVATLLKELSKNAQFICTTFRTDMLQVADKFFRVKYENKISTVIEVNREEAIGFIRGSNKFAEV
Assay: scanning force microscopy; full-length Smc1 co-incubated with full-length Smc3 in the presence of ATP, seeded on mica; V shapes and ring shapes counted as heterodimers
Conditions: both partners purified

Binder	binding result
B1	binds
B2	binds
B3	binds
B4	binds
